Measurements taken from the supplement of paper PMC10567573.

B1: FUT8 (parent)
chain: YAHQPRTADEIPMEPGDIIGVAGN
B2: DLC1 (parent)
chain: AIQGISEKEKAEIEAKEACDWLRA

Variants of: B1
Assay: protein stability index of a GFP-peptide fusion (GPS, HEK-293T) (PSI 1-6); higher = more stable
Details: c terminus: a fixed tail appended
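Note: lentivirally expressed fusions sorted by FACS into six bins by GFP to DsRed ratio, PSI derived from sequencing read proportions per bin multiplied by bin number.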

Protein stability index, by site and new letter:
E14: H 3.5, I 3.23, K 3.29, L 2.88, M 3.25, N 3.25, P 3.12, Q 3.47, R 3.48, S 3.29, T 3.9, V 3.58, W 2.1, Y 2.27
P15: A 4.38, C 3.58, D 4.32, E 4.57, F 3.52, G 4.16, H 3.86, I 3.5, K 4.16, L 3.2, M 3.68, N 4.08, Q 4.25, R 4.23, S 3.92, T 4.25, V 3.58, W 2.2, Y 3.31
G16: A 4.3, C 3.5, D 4.61, E 4.26, F 2.93, H 4.08, I 3.44, K 3.75, L 3.73, M 3.54, N 4.16, P 4.1, Q 4.17, R 3.66, S 3.87, T 3.86, V 3.92, W 2.12, Y 3.05
D17: A 3.23, C 2.79, E 4.24, F 2.03, G 3.38, H 3.29, I 2.57, K 3.25, L 2.3, M 3.06, N 3.48, P 3.14, Q 4.14, R 3.45, S 3.78, T 3.38, V 2.87, W 1.41, Y 2.68
I18: A 3.83, C 3.01, D 4.95, E 4.19, F 3.55, G 3.84, H 3.71, K 4.56, L 4.05, M 4.21, N 4.03, P 4.7, Q 4.07, R 4.45, S 3.79, T 4.2, V 4.47, W 3.11, Y 3.63
I19: A 4.67, C 4.22, D 5.07, E 5.21, F 3.78, G 4.34, H 4.02, K 4.42, L 3.65, M 4.54, N 4.72, P 4.61, Q 4.25, R 4.4, S 4.55, T 4.16, V 4.17, W 1.93, Y 4.06
G20: A 4.26, C 3.73, D 4.59, E 4.48, F 3.55, H 4.17, I 3.26, K 4.34, L 2.96, M 4.11, N 4.29, P 4.47, Q 4.06, R 3.56, S 3.86, T 4.37, V 3.5, W 2.08, Y 3.37
V21: A 4.33, C 4, D 4.62, E 4.62, F 3.8, G 4.29, H 4.15, I 3.93, K 3.99, L 4.03, M 3.68, N 4.28, P 4.13, Q 4.22, R 3.47, S 4.05, T 4.69, W 3.03, Y 3.82
A22: C 3.14, D 4.19, E 3.92, F 2.85, G 4.01, H 3.97, I 3.12, K 4.4, L 3.63, M 3.96, N 4.38, P 4.06, Q 4.31, R 4, S 3.92, T 3.87, V 3.26, W 2.41, Y 3.27
G23: A 3.96, C 3.12, D 4.24, E 4.83, F 2.99, H 3.99, I 2.87, K 4.19, L 3.27, M 3.7, N 3.63, P 3.73, Q 4.11, R 3.31, S 3.77, T 3.87, V 3.58, W 2.67, Y 3.13
N24: A 3.95, C 3.57, D 4.71, E 4.59, F 2.46, G 3.43, H 3.39, I 2.93, K 3.62, L 2.77, M 3.21, P 3.18, Q 4.03, R 3.5, S 4.17, T 4.13, V 3.61, W 2.66, Y 3.21

Variants of: B2
Assay: as above
Details: c terminus: a fixed tail appended

Protein stability index of substitutions, site by site:
A1: C 4.09, D 4.96, E 4.74, F 3.18, G 4.58, H 4.21, I 3.94, K 4.32, L 4.21, M 4.09, N 5.11, P 4.47, Q 4.23, R 4.55, S 4.67, T 4.6, V 4.18, W 3.23, Y 3.71
I2: A 4.94, C 4.88, D 4.99, E 5.26, F 4.81, G 4.57, H 4.9, K 4.56, L 4.91, M 4.94, N 5.13, P 4.96, Q 4.79, R 4.78, S 4.99, T 5, V 4.19, W 4.37, Y 4.24
Q3: A 4.83, C 4.28, D 5.2, E 5.07, F 3.61, G 4.33, H 4.68, I 3.88, K 4.27, L 3.54, M 4.18, N 3.77, P 4.19, R 4.43, S 4.56, T 4.81, V 4.34, W 3.58, Y 3.47
G4: A 4.47, C 4.32, D 4.79, E 4.53, F 4.24, H 4.36, I 3.15, K 4.26, L 3.27, M 3.92, N 3.67, P 4.33, Q 4.46, R 3.08, S 4.45, T 4.2, V 3.9, W 3.8, Y 3.73
I5: A 4.77, C 4.66, D 5.19, E 4.35, F 4.18, G 4.9, H 4.94, K 4.71, L 4.36, M 5.16, N 4.79, P 4.46, Q 4.97, R 4.57, S 4.8, T 4.87, V 4.54, W 4.47, Y 4.45
S6: A 4.31, C 4.3, D 4.84, E 4.99, F 3.86, G 4.39, H 4.28, I 3.58, K 3.96, L 3.56, M 4.04, N 4.54, P 4.88, Q 4.74, R 4.46, T 4.73, V 4.14, W 3.71, Y 3.48
E7: A 4.25, C 3.61, D 4.39, F 3.44, G 4.22, H 3.86, I 3.63, K 4.3, L 3.06, M 3.67, N 3.72, P 3.71, Q 4.06, R 3.62, S 4.15, T 4.14
